Assay results as given in article PMC10439124.

Biological target: Pfs230D1-E2p fusion protein (Pfs230D1-linker-E2p), 60-copy nanoparticle (Plasmodium falciparum (3D7) | Geobacillus stearothermophilus) (UniProt P68874)
Test: SEC-MALS + other: SEC-SAXS; SIBYLS beamline 12.3.1; the sample was injected into a size-exclusion column and a post-column splitter directed the eluate to the MALS and SAXS systems; molecular weight from Astra 6 (MALS) and PRIMUS/ATSAS (SAXS)

Pfs230D1-E2p fusion protein (Pfs230D1-linker-E2p), 60-copy nanoparticle (from UniProt P68874 542-736)
stoichiometry N: 60
